# Assay: protease stability score; higher = more stable; yeast display proteolysis, trypsin and chymotrypsin;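 also: relative to predicted unfolded state with 0 unfolded-like and 1 meaning tenfold more protease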
row,Sequence,protease stability score
1,SELEEIAEEVARRFSHFIETGDEEKLWKYFDPHVKIDIDIDGRTKELHGMERFVFFIRYLGLDRVELRDHRIEIQGEKAILDGTTHINGRTRKTNFHIFVFNGRIKFMQVHII,1.48
2,DEWTEDVREALHLIKHSIETGDPRLIEELADPNVRVLYGNKVYHGREKLSDLVTEWRTTHVDFHHVRVIGDKIDIDVIIRSEYNGRVVDLKEKIVATKINGKWILHSRNIH,0.531
3,SEDEKVVKWASDVLLDYIRTGDWRSLEELIDPHARHDVNGVEIIGMEHILKHFMELRRRIDHIHLRVHHIRVFDGQIDLNGKLHVNINGREIELDTRVIALKVNGRWVNHIISIG,1.44
4,SYHEKEALDLYRMTIHNYLTGDWKEWHRLFDPHVRIRIGDKELHGMENFAKWEEDLEKDLGVDHVEIRLRDMEVQGDKFTSDGELRLHIDGRTIRHKVEFHLEVINGRIKSHRINIH,1.04
5,SEEEKLFKIMMKLLLEQTETGDEHFLKHQFDPHARLEIGEFDLHGWEFMDEHVRHWRYRDMELRRLEFQGNKIETRGLIIGEYNGRRLEISVRMIVLKIDGKWIIKHVHIH,1.42
6,HEHEELIRWAVELLEHNTRTGDEETLIRLADPNVRMIFDGRDLVGRDWLLEFEERLGADHVELEFRHVRIIDGRVHVNGIMRHEFDGVRVERRTTIIVKKINGRWNNRTVEFR,0.529
7,REIEKSLEESLKMWLENLVTGDERQLSELVDPDAKLEVGDKHHVGMETISHMIRHMRIESIEIKSIRIFDGRAEIHAYVLGNINGQRKDLNEKLHWEKINGRWEVRKILLE,2.13
8,DEIEHLVHWAVEVYRHVLETGNESDLFRLFDPHVKLDVNGKEIVGREDVIEFISREIKQFDHVKLRIHRIDFQGDFVEVEGRLIVRQGDKEIRHDVRIYAEKIDGQWNVKSLSFR,2.48
9,DEEEEMAHRLVEQHDEFIRTGDERINHELADPHAKVEIGDKEFIGRETFSKLMVEWRTREIRLTHIEVINGQVHLYQDVRVDYNGKEMHQHVRWDSLKINGKWFDHSVHIK,0.317
10,SELNHSVRRAIEIFERVSKTGDEREIRDLADPNVKLDFDGREHHGWEWFVRFMKEIRIKDHRIRDVELIGEFVIIHGELEMEINGVDIRTEVEFYVFKINGKWYLKRLIIR,1.92
11,HEIEEEVENAVRLISHLLLTGDEETLHDLADPEMRTIVGDKHLHGREMWSEVIRRLGVDVLVIKEIRVQGDWIHSDGVLLVNGQERDAKIHVRKVNGKWVITTFQLK,1.8
12,DEDEENTRKLLESYIRVFRTGDEDRMIELADPDVRLKIDGVTRHGREDWMRHWLNLVERMGANVSELTRFDVFDGQVHSHHKLVQGDKERKMHLILIKVDGRWFLHEISEQ,0.157
13,HESDKLVDEIFKTFIHAIVTGDEETLKTMLDPNTKFILIYGDKYHEHHGWRDLIRWLREIRIREIIHRHVENQGDKVHHEGELRGEFNGKEIRTEIHIHMVVVNGKLRRMEWEIK,2.07
14,HEEERLAREYMKRLIHDWVTGDEREHLKLLDPDVRFVQGDKHHHGREEMMRWFQEIRVEDLKHTDEKVYGEKAFVTGHTTWNINGQKIEVKVHYEFVVVNGRVKMIRIDVQ,1.22
15,HEEEKLNHLWYEIVVHLLLTGNWKEIKKNADPHARSDINGVEYHGREEVSEVLHHVMKKMGAKVFREKEHDHQGEYMHIHFEIRVGDKLVESTLISLKVDGRWIHHEYREK,1.37
16,SELDELANFANELFWELHKTGDEEIFNHYADPHMRYEIDGRDIHGMEVFTKHLRRIKNLTLHSIHVHDEKSQGEKFIFDGNVVGRVNGKEFDTRVRLELTVINGRVHSIILRRH,1.41
17,SEEERQSREFFKKWIHYMLTGDEHQIHTLADPNVRVVINGKEHHGRERLYELVLEFHHRLQNATSRVHTQDSVVIDGRLELHMELRVHQGDKEDTFQIRQLVVKIDGVWHSKSFEVE,1.61
18,DEEEELAIEVVQRWVEDFLTGDFRSFRELADPNTKTRINGQEMHGRHVYVEWFVKWLKQIDHHDFKLHDVKVINGQVHTDGEMRLEVNGREHRSRVELILVIINGRLHMVELRIK,2.13
19,SEDETEEHKFHNILSHAWETGDEEVLERLADPHVRFFYNGKEQVGRELMVELLRELLKRLGVDRIEIEIKDVRLQGDKARWHGDNVFNGRRVHVHISLVKVNGRWRIHHLDMG,1.31
20,SEEEEVLRHLSKTFTRAMLTGDWKFLFEFADPHVRNDVGDWTRIGMHSMIELLELLHRELRITHLHIDEVRVIGNKAEWEGRNNVRINGQEDKRDVRLELEIVDGKMSLVNVEFK,0.364
21,EEDREWVERIIRHYREAELTGDEDRMKELVDPNTRFHIDGVVYHGMDEWTRYVRELRMRSRTRVHQVRVIDGRIEADFEYEIHIEINGVQIDRRQEVILIFKKVNGKWIVERVIVV,1.93
22,REEEKFAIHLVRRVVEYLLTGDEDSLKRLADPNTRIHINGVDRHGMEESYKWWKSEIDHLRHHIVITRMRFIDGVIEVDIRLHSDFDGVRFSWNVHLILLVVDGRIKTDKMIVE,1.26
23,SEEDEEAERWVRMLEHLIRTGDEEILNSFADPNVRYIQGDKHLHGRETVYEYLEELWRKLGVDHMNIKDRHLRVFNGRVHLQLFVHFTVNGRSFDSILRFDTIKIDGQWHMHRIVVEII,1.31
24,DDLEHEAHEFVRRFMEDFDTGNEKSFEDLADPNVRLDFDGKRQHGRETVSEWLYRWLYDLGIKHTTLRHVETINGRVHSTAELKVGDKHYDLHVEFKKVDGKWVFQRVYFR,1.11
25,DHEEELAKSMLEIWREVVWTGDEDSLQKLLDPDARYHLVVDGKRVERIGMEHIRKELHRLFREWRIEDMHIHEIRVVDGVAHTRTRLVVNIDGRIVDTETVINVVSFDGRVRSVTVDIR,1.25

row,Sequence,protease stability score
1,DKLHHDARWMMERLYETLETGDFHSFLRLADPEVLLIINGQFLHGREEVERFYDEEREKFKGLTIKHLHIHRVEMQGDKVRVDSRIHHIINGVNVHNNVKLEFVAFDGRMHRLRIEEE,1.24
2,DEDEESTKHALELWEESMETGDEHDLKHLVDPHARLEVGDKTYHGREAVHVLFRRIDHLHDIRIDHVEVQGNKIHMDVTLNYYFNGRVEEEKFEILILKINGRWRIKSMRIK,1.78
3,DEDKESLTRFWRMWVELNQTGDEDSLLKMFDPHVKIDINGRDLHGRELFAEEHKKFREEMGIDHFEFEIHRFEVQGDKANLDAKVTIRIGDKFHQLDLHIILHKVNGRWVLHSVKIR,1.22
4,EEEEKVEHDLLRLFAEALSTGNEHIMAELLDPHVRIIVNGKHNIGRETRKTFIEHIRVRSEDVRIRTIEVQGDKIITDSEMDIILDFDGVRTTTTVEVQIIIWKYNGKWYIKMVKFK,1.36
5,SEIREETQRVIEEFLRNHKTGDESLFHELADPNARLHFHQGDKRLDFIGREHVLEFWSRVSKELGVDHVELKDHKLQGDKMILHIESEVNGRRMIIIDISDKIDGRWVLHTLHIHVE,0.466
6,SESLEFATKLLEILTHLMYTGDEEDLRHLLDPHVRILFNGKYFHGMEFLMEIYKHWRIQEVRVRFRDVRDVDGRIFVRGEEENVGTINGKRDIVWSHITLIAEKVDGRWVVKEIRIE,1.88
7,EEERERAKDVFELLWDIEKTGDEDTFTKLADPNVRTHVGDKHFHGRELVAKWLVDVLRELRVHDIEIKSETVINGRNIVDGVLDGHINGRTVKMTTEILILVINGRIREIDIRIL,0.825
8,DEIHQFIEHMTKLLITALYTGDERMLEELADPHVKLDIGDKHSVGRENFVEMMKWLADHIRVRHTDIHDLKIYGEKTRVDMRVDGEVDGQRVEYRVEIFLFVVDGRLKRSSVHFK,1.09
9,DEKEKIVHEMFKLWVDLLLTGDEEILRRMLDPNTRLDFNGVDVIGMERIADHLRHWRFHDIRIEHMRVYNGRVEVETRLDGYWDGRRIRTTSHILLVVVGDKIKEIHIKID,2.38
10,NEEKEEAERFTRQFLHSWRTGDEESLKRMADPNVRIIVGDYEKVGWEAIEETIKRLGIDHLEYHSVHVHVIGDKVNIHSDVRIQVNGQERDVQIHVHMRKINGRWFVESIRLNFH,1.26
11,SEEHKEAREFLEEWITFIHTGDEDMIHKMLDPDTRSNINGRDLHGRELAVKIIIEEVRRYRGVQIRMEREHVVDGRMESTIRVHQGEKEFEVIVHFVKINGRWRLKWIEIR,1.3
12,SREDELREEFLRRILEVLRTGDFDEWKKYLDPDTRNDINGVDWVGRETAAHELERMYRHIRIKDTKVHDVRVQGDKVHIDVRVLIEFDGRERILETHIVVEKVDGRWHLKHVRFN,1.62
13,DEEERSFELALRLLERTIKTGNEDDWRRMLDPHTKIIIGDKEFHGMEDAEKILREHIHRIDHFHDIHLHRIRVQGDKIHMDVRLDGRINGRRDILIARFTVVKVDGRWVIHQVESH,1.22
14,SEKEKLMHDIIEKYMRNLETGNEEEYAKLADPNTRLHYGNKHRVGWKEIVHTLRHWRIHIRDSEIDSIHNIDGQAFVKGKRKGEINVDGVNIDTTFDVDIIINVFDGRLKEIEIRIH,0.068
15,DEFRRDALETHEDEIRDYLTGDWKSSKHLADPHARFVVGDKHYHGWHEMVRLVKENQEKFGIDHSEFRIHDSHVQGNKVIMDVEIHLTFNGKKIHTRSTILLVKINGVWLNTEIHID,0.072
16,SEHDRLAHEWMRVFLHSIWTGDEDTILKMIDPHMRLDIDGVTFHGRDDVREWFHHHRERVDHIKDVDIKDVRIFDGKAETDRIVHVQVDGKEVDEEVLVILIVIDGRVTSIIIEKR,1.12
17,DEEKEFAEEMTRIWIEFWKTGDEDDLSHMLDPNVRLIIIIGDKHIHMHGRERAIKEIRRLLHEWRIDDEHNEHIRYFNGKVDVRSRIHVTINGREHDHELVVRIFVVDGRVKSVSIEYR,2.52
18,SDLEDEFREFLEEWIKHWLTGDEETLFHLADPHAQIDINGREHHGMDEWMHILLKHLKELGARIEIRIEDIRVQGEKTEVDGNLILHINGRRKELKVELIVRVVNGRLKSIEIRIH,1.02
19,SEEEELWKMVDHLVHEWLRTGDEDTFSHYADPHARSIVNGKELHGREEFSNLVHKLKEQYPNLTLTIDELRSVGDKITLHITEEFNGVRYDVRIYALKVNGKWLHRYVEVR,1.54
20,DEERELTEKLTRKLIHNWLTGDPEAIRRMLDPNVRVIINGQELHGRERFHEHMHHLLRHMRIDHIDIKDWKFQGEKFHIDLHVHGTIDGVHFIHRTESSVIIVNGKIHQMHVHEI,1.41
21,DEDTEKVRWFFEVLKRASDTGNEEEELKLLDPNARYIFNGKNDHGRRAWERFKKNLGVKHVEIHPRDFDVVDGRIHIEIELRIHVDGREIRFDIEIIVEKFNGRWYLRSIHID,0.376
22,SEDHERERRVNEEFLTAMWTGDEKWIMNLADPNVRTEWNGVENIGRETISEHLDHQKKRLGVKHIEIKHVEIINGVLHMHGRLDVNGVETEVIIRSFIIDGRLTELIFEIR,0.819
23,SEEDRFAIEVSEELSRAIETGDEDRLRHLLDPNVKVNVGDKTLHGREEYLHYLRELLRDLGVDVIHIEFQDVRFIGDKLVIDGSLDLRVGDKVIEHKITIIIWKFDGRWVSHSEHIH,1.25
24,DHEEEHARSIIELLLYAFTTGNEKLLRRLIDPDAKVDIDGKSLHGMEDVSRHLREMIDHWRFRHIDVRRLEVQGEWIHITGRWDGDQGDKKVERDVEVRVLVVDGRVKHRSIHFR,1.34
25,SEDEELAESFSRLFFEAEETGDEESLLEMADPNVRVHIDGREIHGREEWIKHLRTFGVERIRIHMRHVEIQGDKLRLDLIVHQGDKTVRIEITIKKVDGRWVVHSIHWS,0.868

# Reference: the NTF2 design screens of Basanta et al. (2020)
